Experiment [1] deals with HLA-A*01:01_… (HLA-PEPTIDE target G10), recombinant soluble complex (human, UniProt P04439-2 25-297; P61769 21-119, enzymatically biotinylated (BirA) for screening and functional assays). Description: scFv PPE ELISA.
Experiment [2] addresses HLA-B*35:01_… (HLA-PEPTIDE target G5), recombinant soluble complex (human, UniProt P01889 25-297 at identity 0.94); P61769 21-119, enzymatically biotinylated (BirA) for screening and functional assays). Description: scFv PPE ELISA.

B1: scFv R3G10-P4A02 (scFv, V domains shown)
VH: QVQLVQSGAEVKKPGASVKVSCKASGYTLSYYYMHWVRQAPGQGLEWMGMIGPSDGSTSYAQRFQGRVTMTRDTSTGTVYMELSSLRSEDTAVYYCARDTGDHFDYWGQGTLVTVSS
VL: not shown
Consider B1, for which the “fold binding to target pHLA over minipool of negative control pHLAs” value (shortened to “fold binding to target pHLA”) in experiment [1] is at least 3 fold.

B2: scFv R3G10-P4G06 (scFv, V domains shown)
VH: QVQLVQSGAEVKKPGASVKVSCKASGYTLSYYYMHWVRQAPGQGLEWMGMIGPSDGSTSYAQRFQGRVTMTRDTSTGTVYMELSSLRSEDTAVYYCARDTGDHFDYWGQGTLVTVSS
VL: not shown
notes: VH and VL as printed equal those of R3G10-P4A02
For the molecule B2, the “fold binding to target pHLA” value in experiment [1] is at least 3 fold.

B3: scFv R3G10-P2C04 (scFv, V domains shown)
VH: QVQLVQSGAEVKKPGASVKVSCKASGGTFSNSIINWVRQAPGQGLEWMGWMNPNSGNTNYAQKFQGRVTMTRDTSTSTVYMELSSLRSEDTAVYYCAREQWPSYWYFDLWGRGTLVTVSS
VL: not shown
B3: the “fold binding to target pHLA” value in experiment [1] was at least 3 fold.

B4: scFv R3G10-P4E07 (scFv, V domains shown)
VH: QVQLVQSGAEVKKPGSSVKVSCKASGYTFTGYYMHWVRQAPGQGLEWMGRISPSDGSTTYAPKFQGRVTITADESTSTAYMELSSLRSEDTAVYYCARDMGDAFDIWGQGTTVTVSS
VL: not shown
With B4, the “fold binding to target pHLA” value in experiment [1] is at least 3 fold.

B5: scFv G5-P1-E05 (scFv, V domains shown)
VH: QVQLVQSGAEVKKPGASVKVSCKASGYTFTSYNMHWVRQAPGQGLEWMGWINPNSGGTNYAQKFQGRVTMTRDTSTSTVYMELSSLRSEDTAVYYCARDVMDVWGQGTTVTVSS
VL: DIQMTQSPSSLSASVGDRVTITCRASQGISNYLNWYQQKPGKAPKLLIYYASSLQSGVPSRFSGSGSGTDFTLTISSLQPEDFATYYCQQTYMMPYTFGQGTKVEIK
Take B5: the “fold binding to target pHLA” value in experiment [2] is at least 3 fold.

B6: scFv R3G10-P1F06 (scFv, V domains shown)
VH: QVQLVQSGAEVKKPGASVKVSCKASGYTFIGYYMHWVRQAPGQGLEWMGMIGPSDGSTSYAQKFQGRVTMTRDTSTSTVYMELSSLRSEDTAVYYCARDSSGLDPWGQGTLVTVSS
VL: DIQMTQSPSSLSASVGDRVTITCRASQSISNYLNWYQQKPGKAPKLLIYKASSLESGVPSRFSGSGSGTDFTLTISSLQPEDFATYYCQQSYIIPYTFGQGTKLEIK
In the case of B6, the “fold binding to target pHLA” value in experiment [1] was at least 3 fold.

B7: scFv R3G10-P4C05 (scFv, V domains shown)
VH: QVQLVQSGAEVKKPGASVKVSCKASGYTFTGYYMHWVRQAPGQGLEWMGIIGPSDGSTTYAQKFQGRVTMTRDTSTSTVYMELSSLRSEDTAVYYCARAENGMDVWGQGTTVTVSS
VL: DIQMTQSPSSLSASVGDRVTITCRASQRISSYLNWYQQKPGKAPKLLIYSASTLQSGVPSRFSGSGSGTDFTLTISSLQPEDFATYYCQQSYSTPFTFGPGTKVDIK
Take B7: the “fold binding to target pHLA” value in experiment [1] is at least 3 fold.

B8: scFv G5-P3G01 (scFv, V domains shown)
VH: QVQLVQSGAEVKKPGASVKVSCKASGGTFSGYLVSWVRQAPGQGLEWMGWINPNSGGTNTAQKFQGRVTMTRDTSTSTVYMELSSLRSEDTAVYYCAREGYGMDVWGQGTTVTVSS
VL: not shown
B8: the “fold binding to target pHLA” value in experiment [2] was at least 3 fold.

B9: scFv G5-P1B12 (scFv, V domains shown)
VH: EVQLLESGGGLVQPGGSLRLSCAASGFTFSNSDMNWVRQAPGKGLEWVASISSSGGYINYADSVKGRFTISRDNSKNTLYLQMNSLRAEDTAVYYCAKVNWNDGPYFDYWGQGTLVTVSS
VL: DIQMTQSPSSLSASVGDRVTITCRASQSISSWLAWYQQKPGKAPKLLIYAASSLQSGVPSRFSGSGSGTDFTLTISSLQPEDFATYYCQQANSFPLTFGGGTKVEIK
As for B9, the “fold binding to target pHLA” value in experiment [2] was at least 3 fold.

B10: scFv R3G10-P2G11 (scFv, V domains shown)
VH: QVQLVQSGAEVKKPGASVKVSCKASGGTFSTHDINWVRQAPGQGLEWMGVINPSGGSAIYAQKFQGRVTMTRDTSTSTVYMELSSLRSEDTAVYYCARDRGYSYGYFDYWGQGTLVTVSS
VL: DIQMTQSPSSLSASVGDRVTITCRASQDISRYLAWYQQKPGKAPKLLIYDASNLETGVPSRFSGSGSGTDFTLTISSLQPEDFATYYCQQANSFPRTFGQGTKVEIK
With B10, in experiment [1], the “fold binding to target pHLA” value is at least 3 fold.

B11: scFv R3G10-P3E04 (scFv, V domains shown)
VH: QVQLVQSGAEVKKPGASVKVSCKASGNTFIGYYVHWVRQAPGQGLEWVGIINPNGGSISYAQKFQGRVTMTRDTSTSTVYMELSSLRSEDTAVYYCARGSGDPNYYYYYGLDVWGQGTTVTVSS
VL: DIQMTQSPSSLSASVGDRVTITCQASQDISNYLNWYQQKPGKAPKLLIYAASNLQSGVPSRFSGSGSGTDFTLTISSLQPEDFATYYCQQANSLPYTFGQGTKVEIK
Regarding B11, in experiment [1], the “fold binding to target pHLA” value was at least 3 fold.

B12: scFv G5-P1C12 (scFv, V domains shown)
VH: QVQLVQSGAEVKKPGSSVKVSCKASGGTFSNFGVSWLRQAPGQGLEWMGGIIPILGTANYAQKFQGRVTITADESTSTAYMELSSLRSEDTAVYYCATPTNSGYYGPYYYYGMDVWGQGTTVTVSS
VL: DIQMTQSPSSLSASVGDRVTITCRASQSISSWLAWYQQKPGKAPKLLIYAASTLQSGVPSRFSGSGSGTDFTLTISSLQPEDFATYYCQQSYSIPLTFGGGTKVEIK
Regarding B12, the “fold binding to target pHLA” value in experiment [2] was at least 3 fold.

B13: scFv R3G10-P1H08 (scFv, V domains shown)
VH: QVQLVQSGAEVKKPGASVKVSCKASGVTFSTSAISWVRQAPGQGLEWMGWISPYNGNTDYAQMLQGRVTMTRDTSTSTVYMELSSLRSEDTAVYYCARDAHQYYDFWSGYYSGTYYYGMDVWGQGTTVTVSS
VL: DIQMTQSPSSLSASVGDRVTITCRASQGISNYLAWYQQKPGKAPKLLIYSASNLQSGVPSRFSGSGSGTDFTLTISSLQPEDFATYYCQQAYSFPWTFGQGTKVEIK
For the molecule B13, the “fold binding to target pHLA” value in experiment [1] was at least 3 fold.

B14: scFv R3G10-P1H01 (scFv, V domains shown)
VH: QVQLVQSGAEVKKPGASVKVSCKASGYTFTGYYMHWVRQAPGQGLEWMGMIGPSDGSTSYAQKFQGRVTMTRDTSTSTVYMELSSLRSEDTAVYYCARGVGNLDYWGQGTLVTVSS
VL: DIQMTQSPSSLSASVGDRVTITCRASQSISNYLNWYQQKPGKAPKLLIYAASSLQSGVPSRFSGSGSGTDFTLTISSLQPEDFATYYCHQTYSTPLTFGQGTKVEIK
As to B14, in experiment [1], the “fold binding to target pHLA” value was at least 3 fold.

B15: scFv R3G10-P4D10 (scFv, V domains shown)
VH: QVQLVQSGAEVKKPGASVKVSCKASGYTFTGYYLHWVRQAPGQGLEWMGMIGPSDGSTSYAQKFQGRVTMTRDTSTSTVYMELSSLRSEDTAVYYCARDGDAFDIWGQGTMVTVSS
VL: DIQMTQSPSSLSASVGDRVTITCRASQGISSWLAWYQQKPGKAPKLLIYDASNLETGVPSRFSGSGSGTDFTLTISSLQPEDFATYYCQQSYSTPLTFGGGTKVEIK
On to B15, for which the “fold binding to target pHLA” value in experiment [1] was at least 3 fold.

B16: scFv R3G10-P4D04 (scFv, V domains shown)
VH: QVQLVQSGAEVKKPGASVKVSCKASGYTFTGYYVHWVRQAPGQGLEWMGIIAPSDGSTNYAQKFQGRVTMTRDTSTSTVYMELSSLRSEDTAVYYCARDPGGYMDVWGKGTTVTVSS
VL: DIQMTQSPSSLSASVGDRVTITCRASQSISSYLAWYQQKPGKAPKLLIYDASKLETGVPSRFSGSGSGTDFTLTISSLQPEDFATYYCQQSYGVPTFGQGTKLEIK
B16: in experiment [1], the “fold binding to target pHLA” value was at least 3 fold.

B17: scFv R3G10-P5C08 (scFv, V domains shown)
VH: QVQLVQSGAEVKKPGASVKVSCKASGYNFTGYYMHWVRQAPGQGLEWMGIIAPSDGSTNYAQKFQGRVTMTRDTSTSTVYMELSSLRSEDTAVYYCARETGDDAFDIWGQGTMVTVSS
VL: not shown
Consider B17, for which the “fold binding to target pHLA” value in experiment [1] was at least 3 fold.

Source of the values: patent US20220213196A1 (GRITSTONE BIO, published 2022).
